Assay results published in the supplement of paper PMC12042874.
± gives the uncertainty stated by the source.

Assay: amyloid nucleation score (Sup35N fusion, yeast selection) (log enrichment); library NNK1; higher = more nucleation; inactive = no reads after selection
Summary of the method: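 Nucleation score: DiMSum log enrichment of output over input reads, centred on the mode score of non-aggregating sequences. Only sequences with at least 100 input reads were kept. Reads came from Illumina sequencing of plasmid inserts before and after 7 days of growth at 30°C without adenine and uracil, in psi-negative yeast expressing Sup35N fused to peptides of 20 random codons after 24 hours of induction with 100 μM copper sulfate.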

Substance | amyloid nucleation score
FGTGFSLCKFFCLAMRPSDV | 5.25 ± 0.08
RTGYPGSEVMGTRSFLSRNS | -0.385 ± 1.9
HGINET | 0.357 ± 0.48
VLAVLVFSGCGGVRGTSNLT | 1.54 ± 0.14
KGKECKRFLVNTKIGSNRT | inactive
VRPMSDNSRVCVKSDNRSTG | -1.14 ± 0.93
AGAVCWACDR | -1.4 ± 0.77
FMSAV | 0.374 ± 1.2
PLEKVFVGPSADASNEEHRL | -0.883 ± 1.1
RCGVRLF | -1.31 ± 1.2
TGYFNTRVWLDRLDYVLETN | -0.44 ± 0.29
LWLAVSSVNCHSRHLLVWVT | inactive
LKFSVFVKASPCTIRRS | -0.218 ± 0.5
NCFRFCRQLLTAEDDVMCLP | 0.117 ± 0.81
SHCCLDQLGVSDKAR | 0.142 ± 0.62
RSVRCVLLVAINRVMLG | 0.52 ± 0.67
QELPFRRSYNLSNCSDNWHS | inactive
NLGIWPLYPYFFWLGQIWGD | 0.022 ± 0.77
FHDLTQSCVCGSM | 0.717 ± 0.49
SFNHYMFLYFVISGWSSPQA | 1.1 ± 0.55
QMYVVMLVGVLFCWGTPYRL | 0.301 ± 0.39
WYYITS | 0.295 ± 0.67
VIIAEVDVVA | -0.186 ± 0.57
PRTYMIRNWKSTNNSLASPK | -1.09 ± 1.5
LWGLVRSFFDIDNLKGFRTE | -0.257 ± 1.9

Substance | amyloid nucleation score
VESTCTNMRCYLGWFIPPF | 0.387 ± 0.2
TLGAVHTVHVRFGESSNVFL | 0.055 ± 0.74
LWYTALINTNACCVIRQDFR | 1.04 ± 0.8
TKALLQEVPIT | 0.345 ± 1.2
MFQPFPFIHQVDQPFPKSVQ | 0.51 ± 0.47
CILVARKAVLNCGGWKRSVR | 6.27 ± 0.067
LNVIQPSWDRNFHFEVRFGH | 7.942 ± 0.061
IQYNSKIRVFALDYPIEFPC | 0.083 ± 0.61
SLIISKEGRYVFYVCLRGWW | -0.447 ± 0.42
EGATWIFQYLAGGVG | -0.534 ± 0.34
TCDRVNAIVEFWRCR | 1.46 ± 0.12
YIIYGWVEIF | -1.14 ± 2.1
ISGSHFVSLPV | 0.518 ± 0.38
DHGGVVPSNPGYNMARSLRF | 0.465 ± 0.46
VSMHNLMQRFSGFMYQCFAG | 1.55 ± 0.2
LKSIPNCFRHFYVNTFS | -0.923 ± 0.49
HDSAELDSRYNSASCVSLWL | -0.213 ± 1.1
GGHYAVQNPMRVYAYGH | -0.667 ± 1
VFQLIVTTFLSCVGFHKVMW | -0.658 ± 0.6
RAKSGLMNGDGYRNVAQGDD | 0.155 ± 0.43
WSRTDRDDLLVYMKLPRHVY | 0.472 ± 0.37
GNVKSTRWFESV | 0.72 ± 0.78
KLFDYAVYLC | 0.936 ± 0.5
RMDFMWLVKI | 4.57 ± 0.056
SCSPPIA | 0.223 ± 0.46

Substance | amyloid nucleation score
LFTVKKVFQLLYL | 0.936 ± 0.7
GTYSKG | 0.7 ± 0.97
SLTAVISTKVL | -0.663 ± 1.7
VTHNSTAHE | 1.09 ± 0.75
ELSLRSSISVGEPVRDP | 1.14 ± 0.6
MNYRQLL | 0.177 ± 0.7
QKWVFVEVCSCRVSLTNLVL | 0.233 ± 0.35
QGLSGDDCLHGNFKFHMSET | -0.243 ± 0.32
ECTCSIK | 0.03 ± 0.22
IEGWHTRVHRRTLIVMCLIG | 1.09 ± 0.41
ISIRIEDFLYSQ | 0.237 ± 0.57
VFLKCFRYTFNNHINFFCVG | 5.96 ± 0.064
RCILRSTSFRAVAWM | 0.771 ± 0.67
ISNYNFNRWHAVSNLGRCIS | -0.033 ± 0.73
VSYLEGVRWLCIIYTGNRSW | inactive
GRLFWVNVTLNLRDMNYSDM | 1.09 ± 0.5
CGNSFTKLTTMLTRHHIADG | 0.437 ± 0.38
DVMAVCGIGRKYLIWYSCVR | -1.54 ± 0.79
YEFVRRDHVPFRLGMSNPED | 1.76 ± 0.53
ANMDWGRAMFWDGRVGMVRS | -0.645 ± 1.7
YYMTIFERFSLHFTMGLNLG | 0.752 ± 0.56
FYSFTGGAVGLGLC | 1.11 ± 0.49
RLVLSGWNVTVNSILYQGFI | 6.078 ± 0.06
DSVLLRFYDCCEMFYLHSLL | 0.48 ± 0.67
FFRGFSWRVCSSFSSLVELW | inactive

Substance | amyloid nucleation score
SDVVFYFGDAGFRMLSEDSR | -0.326 ± 0.55
SITWNPPVPVRTNVVDRNLG | 0.48 ± 0.52
WFSINIGKMGARVLSVGQDG | inactive
RSLQDGILKTKNCL | 0.659 ± 0.24
IFWGWSIQG | 1.17 ± 0.58
CLSGGFMPTYKVIWRQGCYG | inactive
YYLSVNR | -0.116 ± 0.67
SVGQRSRAEPDVKLCSGNLG | inactive
RGYAVNAGYSVCMYWLGTLL | 0.695 ± 0.53
FFFIN | -0.391 ± 0.47
LVKYKKV | -0.088 ± 0.43
RTYKINGQSKFSLACITTLS | -0.125 ± 0.7
GKVAPFRDSGNIIADGNIHE | -0.219 ± 0.47
LVKNHYHFMANLGCP | 0.133 ± 1.4
WICMAP | 3.42 ± 0.089
FACTTSFSFMRWLRN | 0.903 ± 0.46
VMGSGLRMGLAESCVENGAS | -0.021 ± 0.31
TMVGTMVSMF | -0.539 ± 0.45
EGICNYSSKYCQGMVLIGSS | -1.52 ± 1.5
HVTNSWNSKGLRTSSGDTNV | 0.305 ± 0.4
VRGSVGANGQHVPEDMTVRM | 0.786 ± 0.44
IGDRKMSY | 0.145 ± 0.71
PTIFFDYAHYQTGRVLMAL | 0.408 ± 0.35
MCDGTFCGSSSGHCSASLRH | 0.728 ± 0.35
WCGKACFVYKSHGQGG | 0.235 ± 0.53

Substance | amyloid nucleation score
GLCFDARLLEL | -1.87 ± 2.7
VKKRGDQLSLCWCLPRDLLL | 0.612 ± 0.59
VTPGRLQRLVM | -1.39 ± 0.58
TFSHNIIRSCLTKESVSFP | inactive
NFNCLVTDAFYFRGWKCLDR | 4.9 ± 0.12
RESVINIR | 1.28 ± 0.46
WIATC | 0.214 ± 0.29
GLGLHWSEASFRLRMDRRFA | 3.79 ± 0.069
AFKWTSCYIFPLNWRKLFN | -0.336 ± 0.34
LSWIR | -0.09 ± 0.66
TSSPKRFLIMKVNCIIILDL | -0.721 ± 0.68
FIQGLCMVFDVSYLRLS | 2.8 ± 0.15
INCQMWYRGPYIIQFLNLGW | 6.846 ± 0.055
TNKGFQYSGLVYCCWVRYLF | inactive
CFTKIFDDYSWCFGAGANQS | 0.348 ± 0.28
WGQTWDVFY | 0.916 ± 0.46
VFVSWHKVCTNQRSLRQVHL | 1.56 ± 0.48
LHRITYLCSNVYSVCGLVCA | 4.35 ± 0.079
FVLSNIPVAYLANANNAFHF | 0.677 ± 0.52
VCPVHSNKGLQFLSMRHYSS | 0.511 ± 0.87
LRNHASVPV | 0.084 ± 0.4
CCLGRR | -0.151 ± 0.52
RGAPKLCTDIDWARYFNRGL | -0.407 ± 0.4
LAWIGFRYRDGMKYGVHWGR | -0.522 ± 1.2
SNWLFWFIKMGQFQDSICYA | -0.616 ± 1.4

Substance | amyloid nucleation score
MYISYSLNKTPIVFAPCTVH | -0.018 ± 0.48
KMYLLRIQ | 0.661 ± 0.82
RHHCKTCASYCFRIFIAEMM | 0.216 ± 0.42
DLRAVNLNSYSLLDSFTCFF | 5.59 ± 0.06
LYFSTYVFLASTSGHLSRFD | -1.36 ± 2.1
GGTGMVGRDANTSFIFWDIV | -0.099 ± 0.36
PYWLINIQEVTTD | 0.654 ± 0.48
TPSLLVAVRILAAVMPSWET | -0.746 ± 0.43
ALVYANPMTVWPSGSLTSVL | 0.685 ± 0.47
SKRLACSYSSMFVKCSEYKL | 0.413 ± 0.97
LESHSNTINIGCKNFGCNRG | 5.38 ± 0.073
QIYKVDGYFQVGILLLSPVP | -1.29 ± 0.95
LVTCLLHAG | -1.38 ± 0.58
LGRIDRWKDQWCSLAELKS | -0.383 ± 1.7
ISYRNLIRFCFSPYAKLWRF | 0.69 ± 0.52
CGGTNILWVRSLPHGLDVHD | -0.204 ± 0.39
SIVLTIIKHFDYMFQDRGG | 6.06 ± 0.07
PFRVLWTCITG | -0.229 ± 1.4
NHVSHWMLSSGKASRYHTRR | 0.142 ± 0.66
WRVSMFGLSESLDRLPCKDL | -0.371 ± 0.45
FVFGTFA | 0.485 ± 0.59
WYENMFN | 3.15 ± 0.14
YTSTIKYLVYNN | -1.08 ± 0.94
FHGLSGMRYWTRFCMWSPAC | 1.36 ± 0.66
CARYNASDRGEASYLIEHCG | -0.224 ± 0.57

Substance | amyloid nucleation score
ALCVDGDAVVTWDTILNEHF | -0.361 ± 0.97
FGSFVFPCYAQPELIPFNLY | 0.119 ± 0.72
FHKVLSMFMMIVLVVKTWTT | inactive
ALLVPGILW | 3.34 ± 0.078
LCRILGSSPVHNLWLWGHGY | -0.363 ± 1.4
RNLLVEFSLVSKWGLSSSWR | 0.557 ± 0.51
YVYNMFRL | 2.88 ± 0.14
IWKKLITNWMAYLTLNNFAL | inactive
PRRHYGLRFGHGHLISVWLR | 0.642 ± 0.41
FLLWKGTIDIMRWHVFASN | -0.847 ± 0.79
SYSEFSVEGFKGHVGAYGG | -0.136 ± 0.29
IGAHFQSNLVIKVNSLEN | 0.697 ± 0.63
KHCRVSPNVSECAFKGAMCL | 1.17 ± 0.63
LPKLICIKRASLFNPFLDLM | 0.056 ± 0.24
GLSGYSRVFMTADDVGVRVW | -1.18 ± 1.5
WVILVNDGVNVCCFSVRVWA | -0.903 ± 2.4
WNDSYRINSTGCHDCLYRLF | -0.37 ± 0.3
LRLLFLNNSATCLVTHVGNQ | 1.38 ± 0.74
HLVGWESR | 0.476 ± 0.79
LRVHDHDRMSDKMRYCNPFC | 1.76 ± 0.42
MVSPPLNTSIYLIPCSSLCD | -0.407 ± 0.25
LRVSYWQDLAVLYLDSPLGL | -0.358 ± 0.87
